Holding throughout (assay): crystal structure
The target in experiment [1] is mVSG1954 N-terminal domain (T. brucei brucei, strain Lister 427).
The target in experiment [2] is mVSG531 N-terminal domain (T. brucei brucei, strain Lister 427).
The target of experiment [3] is mVSG397 N-terminal domain (T. brucei brucei, strain Lister 427).

The term stoichiometry N denotes a count of units in the complex or per binding partner.

Regarding “mVSG1954 N-terminal domain (domain or fragment)”, in experiment [1], the stoichiometry N was determined as 3. In experiment [2], “mVSG531 N-terminal domain (domain or fragment)” gave a stoichiometry N of 2. In the case of “mVSG397 N-terminal domain (domain or fragment)”, the stoichiometry N in experiment [3] stood at 2.

Source of the values: paper doi:10.1101/2022.09.28.508705.
